According to US6395548, “Methods of modulating of angiogenesis” (President and Fellows of Harvard College):

Assays:
HIF-1alpha/ARNT4 = HIF-1alpha/ARNT4 (Homo sapiens, UniProt Q16665;Q8WYA1-5 Q16665:1-826,Q8WYA1-5:1-602); assay: EMSA; HIF-1 did not form dimers with ARNT4 and bind the site
EPAS1/ARNT4 heterodimer = EPAS1/ARNT4 heterodimer (Homo sapiens, UniProt Q99814;Q8WYA1-5 Q99814:1-870,Q8WYA1-5:1-602); assay: EMSA; probe described as HIF-1 site / hypoxia responsive element of VEGF
EPAS1/ARNT4 heterodimer, sequence (Q99814 whole entry, chain 1 of 2): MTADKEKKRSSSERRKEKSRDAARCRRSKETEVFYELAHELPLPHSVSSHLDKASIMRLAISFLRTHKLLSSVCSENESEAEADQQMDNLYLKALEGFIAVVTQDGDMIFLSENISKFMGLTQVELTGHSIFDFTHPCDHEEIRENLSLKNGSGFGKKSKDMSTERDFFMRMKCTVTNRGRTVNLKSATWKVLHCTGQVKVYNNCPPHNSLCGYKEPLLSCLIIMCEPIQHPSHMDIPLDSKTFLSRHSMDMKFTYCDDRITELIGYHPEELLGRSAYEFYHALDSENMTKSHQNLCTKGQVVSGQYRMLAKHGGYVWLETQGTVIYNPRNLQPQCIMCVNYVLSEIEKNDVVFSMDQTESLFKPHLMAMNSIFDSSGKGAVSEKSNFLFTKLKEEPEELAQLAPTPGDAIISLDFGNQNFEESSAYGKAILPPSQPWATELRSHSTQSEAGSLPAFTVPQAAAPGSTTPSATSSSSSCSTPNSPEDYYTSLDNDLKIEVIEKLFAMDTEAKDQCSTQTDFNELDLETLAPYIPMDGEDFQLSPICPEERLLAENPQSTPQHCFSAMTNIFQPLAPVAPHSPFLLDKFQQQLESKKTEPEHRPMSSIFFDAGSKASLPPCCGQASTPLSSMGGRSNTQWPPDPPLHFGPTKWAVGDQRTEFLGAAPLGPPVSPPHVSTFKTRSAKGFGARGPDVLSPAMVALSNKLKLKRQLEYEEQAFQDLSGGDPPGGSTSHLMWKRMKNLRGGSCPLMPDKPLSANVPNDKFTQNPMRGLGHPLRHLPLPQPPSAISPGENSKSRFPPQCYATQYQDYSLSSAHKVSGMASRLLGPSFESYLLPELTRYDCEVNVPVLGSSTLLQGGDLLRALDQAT
EPAS1/ARNT4 heterodimer, sequence (Q8WYA1 other isoform, or with tags, fused parts or gaps, chain 2 of 2): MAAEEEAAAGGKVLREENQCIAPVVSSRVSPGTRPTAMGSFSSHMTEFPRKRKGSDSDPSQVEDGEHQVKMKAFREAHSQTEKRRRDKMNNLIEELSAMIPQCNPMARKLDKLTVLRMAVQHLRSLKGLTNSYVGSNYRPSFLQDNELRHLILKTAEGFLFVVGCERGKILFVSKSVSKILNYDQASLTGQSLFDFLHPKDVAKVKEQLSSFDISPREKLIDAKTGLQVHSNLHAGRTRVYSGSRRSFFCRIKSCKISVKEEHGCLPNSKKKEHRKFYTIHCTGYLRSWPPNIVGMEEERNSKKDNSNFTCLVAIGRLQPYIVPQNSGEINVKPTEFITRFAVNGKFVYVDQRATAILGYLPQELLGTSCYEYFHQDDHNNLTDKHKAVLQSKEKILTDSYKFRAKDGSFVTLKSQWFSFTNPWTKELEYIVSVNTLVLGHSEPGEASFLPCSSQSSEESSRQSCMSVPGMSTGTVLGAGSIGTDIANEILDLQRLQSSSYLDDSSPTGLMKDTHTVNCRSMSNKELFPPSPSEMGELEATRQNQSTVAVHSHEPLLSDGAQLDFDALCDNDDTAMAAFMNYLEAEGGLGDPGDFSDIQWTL

HIF-1alpha/ARNT4, sequence (Q16665 whole entry, chain 1 of 2): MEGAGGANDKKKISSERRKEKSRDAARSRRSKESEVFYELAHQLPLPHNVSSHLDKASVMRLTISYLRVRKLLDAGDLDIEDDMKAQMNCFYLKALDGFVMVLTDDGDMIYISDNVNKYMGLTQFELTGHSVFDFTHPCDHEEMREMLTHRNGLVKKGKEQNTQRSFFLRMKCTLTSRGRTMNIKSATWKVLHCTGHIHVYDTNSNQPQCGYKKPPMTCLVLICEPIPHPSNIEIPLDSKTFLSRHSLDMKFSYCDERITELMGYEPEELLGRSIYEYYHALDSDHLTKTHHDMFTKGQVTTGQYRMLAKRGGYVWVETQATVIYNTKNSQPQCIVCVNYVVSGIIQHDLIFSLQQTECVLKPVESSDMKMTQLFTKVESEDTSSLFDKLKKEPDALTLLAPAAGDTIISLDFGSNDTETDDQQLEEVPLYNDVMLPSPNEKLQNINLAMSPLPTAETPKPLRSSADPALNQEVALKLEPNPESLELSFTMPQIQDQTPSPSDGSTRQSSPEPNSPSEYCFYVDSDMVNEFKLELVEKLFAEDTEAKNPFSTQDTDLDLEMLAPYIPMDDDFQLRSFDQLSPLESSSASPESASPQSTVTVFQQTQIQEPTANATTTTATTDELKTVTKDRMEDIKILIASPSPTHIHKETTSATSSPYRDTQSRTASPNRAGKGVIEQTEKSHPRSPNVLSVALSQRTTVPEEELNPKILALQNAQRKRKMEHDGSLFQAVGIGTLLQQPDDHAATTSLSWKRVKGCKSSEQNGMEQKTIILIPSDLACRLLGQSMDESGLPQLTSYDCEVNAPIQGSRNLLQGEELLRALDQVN
HIF-1alpha/ARNT4, sequence (Q8WYA1 other isoform, or with tags, fused parts or gaps, chain 2 of 2): as the sequence (Q8WYA1 other isoform, or with tags, fused parts or gaps, chain 2 of 2) above

B1: VEGF promoter HIF-1 binding site / hypoxia responsive element (dsDNA)
DNA 1: GCCCTACGTGCTGTCTCA
DNA 2: TGAGACAGCACGTAGGGC
- binding result (HIF-1alpha/ARNT4): no binding
- binding result (EPAS1/ARNT4 heterodimer): binds
